# Experimental data: FireProtDB (doi:10.1021/bi00492a006)
# Conditions: Bacillus amyloliquefaciens; pH 6.3; 25 °C; Urea; Fluorescence; MES-NaOH 50 mM; reversible: yes; whole UniProt chain shown
protein,measurement,value
"Ribonuclease wild type, P00648 (protein) MMKMEGIALKKRLSWISVCLLVLVSAAGMLFSTAAKTETSSHKAHTEAQVINTFDGVADYLQTYHKLPDNYITKSEAQALGWVASKGNLADVAPGKSIGGDIFSNREGKLPGKSGRTWREADINYTSGFRNSDRILYSSDWLIYKTTDHYQTFTKIR",denaturant m value,2.21 kcal/mol/M
same,denaturant midpoint (higher = more stable),4.53 M
same,unfolding free energy,10 kcal/mol
